Reference: paper PMC2668204 (Cellular signalling, 2009)

Target: venus-labeled Gβγ dimers (venus155–239-Gβ1 with venus1–155-Gγ2) (human, UniProt P62873 1-340; P59768 1-71)
Test: FRET or BRET

B1: masGRK3ct-Rluc8 (domain or fragment)
chain: MGSSKSKTSNSGIKLLDCDQELYKNFPLVISERWQQEVAETVYEAVNADTDKIEARKRAKNKQLGHEEDYALGRDCIVHGYMLKLGNPFLTQWQRRYFYLFPNRLEWRGEGESRQSLLTMEQIVSVEETQIKDKKCILLRIKGGKQFVLQCESDPEFVQWKKELTETFMEAQRLLRRAPKFLNKSRSAVVELSKPPLCHRNSNGL
modifications: myristoylation directed by the N-terminal mas peptide
adenosine-induced BRET increase (highest relative expression of C-TM-Gα i1): 0.025 ± 0.003
adenosine-induced BRET increase (lowest relative expression of C-TM-Gα i1): 0.05 ± 0.007
